We go through one molecule from patent publication US20220017636A1 (Amgen, published 2022).

Common to all, as to test: flow cytometry, peptide-loaded T2 cells;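 also: binding of single-chain Fv antibody constructs, raised in XenoMouse, to peptide-pulsed T2 cells measured by flow cytometry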
Background: A flow cytometer gives signals particle by particle.

Test [1] addresses T1, COX14 peptide complexed with HLA-A*02:01 on T2 cells (human).
T1 construct: whole, on cells

Test [2] has as its target T2, ADF peptide complexed with HLA-A*02:01 on T2 cells (human).
T2 construct: whole, on cells

For test [3], the target named is T3, CNDP2 peptide complexed with HLA-A*02:01 on T2 cells (human).
T3 construct: whole, on cells; also called CNPD2

The target in test [4] is T4, MB peptide complexed with HLA-A*02:01 on T2 cells (human).
T4 construct: whole, on cells

The target of test [5] is T5, SLK peptide complexed with HLA-A*02:01 on T2 cells (human).
T5 construct: whole, on cells

Test [6] has as its target T6, KEA peptide complexed with HLA-A*02:01 on T2 cells (human).
T6 construct: whole, on cells

Test [7] deals with T7, MYOF peptide complexed with HLA-A*02:01 on T2 cells (human).
T7 construct: whole, on cells

Test [8] deals with T8, MAGEB2 peptide … (SEQ ID NO: 1) complexed with HLA-A*02:01 on the cell surface (human).
T8 construct: whole, on cells; also called pMAGE-HLA; MAGEB2 pMHC

Test [9] addresses T9, STXBP5 peptide complexed with HLA-A*02:01 on T2 cells (human).
T9 construct: whole, on cells

The target of test [10] is T10, DPYSL4 peptide complexed with HLA-A*02:01 on T2 cells (human).
T10 construct: whole, on cells

B1: 18089-B2 (scFv)
scFv: EVQLLESGGGLVQPGGSLRLSCAASGFTFSSYAMSWVRQAPGRGLEWVSTISISGGSTNYADSVKGRFTISRDNSKNTLYLQMNSLRAEDTAVYYCAKDGGSGWFPKLLHYGLDVWGQGTTVTVSSGGGGSGGGGSGGGGSELQMTQSPSSLSASVGDRVTITCQASQDISNYLNWYQQKPGKAPKLLIYAASSLQSGVPSRFSGSGSGTDFTLTISSLQPEDFATYYCQQSYSIPLTFGGGTKVEIK
notes: scFv in bacterial lysate, detected with anti-Flag M2
Regarding B1, the Signal/background in [1] was found to be 0.9; in test [2], 1; in test [3], 1; in [4] it was 1.1; in [5] it was 1.1; in test [6], 1. For the same molecule, the Signal/background in [7] turned out to be 1.1; in test [8] it was 318; in test [9], 1; in [10] it was 1.
